# Source: patent US20260258155A1 (TRIVENI BIO, published 2026)
# Tests used:
# [1] = target: T1, human KLK5 (hKLK5), active form (human, UniProt Q9Y337 67-293); experiment: cell-based or functional assay
# mouse KLK5 (mKLK5) [2] = target: mouse KLK5 (mKLK5) (mouse); experiment: cell-based or functional assay
# mouse KLK5 (mKLK5) [3] = target: T2, mouse KLK5 (mKLK5) (mouse); experiment: Biacore SPR, antibody captured on Protein A chip, single-cycle kinetics, 25 C
# T2 construct: Enzymatically active in the protease assay
# Experimental: (§1) All screening assays were performed at 25 C. The running buffer used was 20 mM HEPES, 300 mM NaCl, 0.01% Tween-20, pH 7.5. Antibodies (1 ug/mL) were captured on Fc2-4 of a Series S ProteinA Sensor Chip (Cytiva) flowing at 10 ul/mL for 30 s. Kinetics measurements were made in single-cycle kinetics mode with a series of 4-5 concentrations with top concentration of 25-100 nM and serial dilution 4-fold. Contact time was typically 300 s and dissociation time ranged from 1800-3600 s. Flow rate of 30 ul/mL was typically used. The sensor chip was regenerated with 10 mM glycine, pH 1.5 with a contact time of 30 s flowing at 50 ul/mL.
# [4] = target: T1, human KLK5 (hKLK5), active form; experiment: as above
# Experimental: as §1
Binder,hKLK5 IC50 (protease inhibition) [1] [nM],hKLK5 IC90 (protease inhibition) [1] [nM],mKLK5 IC50 (protease inhibition) (mouse KLK5 (mKLK5) [2]) [nM],mKLK5 IC90 (protease inhibition) (mouse KLK5 (mKLK5) [2]) [nM],Kd (mouse KLK5 (mKLK5) [3]) [nM],Kd [4] [nM]
"KLK5-L2-Ab4 (antibody, V domains shown) VH: QLQLQESGPGLVKPSETLSLTCTVSGGSIPSSSYYWSWIRQPPGKGLEWIGNIYYSGSTYYNPSLKSRVTISVDTSKNQFSLKLSSVTAADTAVYYCARGEYDRSYYYWGLDVWGQGTTVTVSS VL: not shown",2.04,9.86,1.68,15.6,0.47,–
"KLK5-L2-Ab3 (antibody, V domains shown) VH: QLQLQESGPGLVKPSETLSLTCTVSGGSIPSSSYYWSWIRQPPGKGLEWIGNIYYSGSTYYNPSLKSRVTISVDTSKNQFSLKLSSVTAADTAVYYCARGEYDRSYYFWGMDVWGQGTTVTVSS VL: not shown",2.26,10.2,1.82,29.5,0.59,–
"KLK5-L2-Ab1 (antibody, V domains shown) VH: QLQLQESGPGLVKPSETLSLTCTVSGGSISSSSYYWGWIRQPPGKGLEWIGSISYSGSTYYNPSLKSRVTISVDTSKNQFSLKLSSVTAADTAVYYCARGEYDRSYYYYGMDVWGQGTTVTVSS VL: not shown",11,92.9,45.9,93.2,20.5,2.53
"KLK5-L2-Ab2 (antibody, V domains shown) VH: QLQLQESGPGLVKPSETLSLTCTVSGGSIPSSSYYWAWIRQPPGKGLEWIGNIYYSGSTYYNPSLKSRVTISVDTSKNQFSLKLSSVTAADTAVYYCARGEYDRSALYYGMDVWGQGTTVTVSS VL: not shown",1.71,8.46,2.21,13.1,0.44,0.003
"KLK5-L1-Ab3 (antibody, V domains shown) VH: EVQLVESGGGLVQPGGSLRLSCAASGFTFEHYSMNWVRQAPGKGLEWVSYISSSSSYIDYADSVKGRFTISRDNAKNSLYLQMNSLRAEDTAVYYCARDLTSMQSRDYYYYGMDVWGQGTTVTVSS VL: DIQMTQSPSSVSASVGDRVTITCRASQGISSWLAWYQQKPGKAPKLLIYAASSLQSGVPSRFSGSGSGTDFTLTISSLQPEDFATYYCQQVPIFPYTFGGGTKVEIK",1.71,15,4.97,40.1,0.32,–
"KLK5-L3-Ab2 (antibody, V domains shown) VH: QVQLVQSGAEVKKPGSSVKVSCKASGGTFSGYSISWVRQAPGQGLEWMGLIFPISGTANYAQKFQGRVTITADESTSTAYMELSSLRSEDTAVYYCARGSASGYYDRSYYYYGMDVWGQGTTVTVSS VL: DIQMTQSPSSVSASVGDRVTITCRASQGISSWLAWYQQKPGKAPKLLIYAASSLQSGVPSRFSGSGSGTDFTLTISSLQPEDFATYYCQQVSSFPYTFGGGTKVEIK",4.45,24,15,91.3,3.8,–
"KLK5-L3-Ab4 (antibody, V domains shown) VH: QVQLVQSGAEVKKPGSSVKVSCKASGGTFNNYHISWVRQAPGQGLEWMGGIIPPFGTAHYAQKFQGRVTITADESTSTAYMELSSLRSEDTAVYYCARGEASGYYDRSYYYYGLDVWGQGTTVTVSS VL: DIQMTQSPSSVSASVGDRVTITCRASQGISSWLAWYQQKPGKAPKLLIYAASSLQSGVPSRFSGSGSGTDFTLTISSLQPEDFATYYCQQVSSFPYTFGGGTKVEIK",1.76,9.81,8.27,83.2,8.8,–
"KLK5-L3-Ab5 (antibody, V domains shown) VH: QVQLVQSGAEVKKPGSSVKVSCKASGGTFSGYSISWVRQAPGQGLEWMGLIFPISGTANYAQKFQGRVTITADESTSTAYMELSSLRSEDTAVYYCARQSASGYYDRSYYRYGMDVWGQGTTVTVSS VL: DIQMTQSPSSVSASVGDRVTITCRASQGISSWLAWYQQKPGKAPKLLIYAASSLQSGVPSRFSGSGSGTDFTLTISSLQPEDFATYYCQQVSSFPYTFGGGTKVEIK",2.58,10.6,4.44,28.4,3.4,–
"KLK5-L3-Ab3 (antibody, V domains shown) VH: QVQLVQSGAEVKKPGSSVKVSCKASGGTFNNYHISWVRQAPGQGLEWMGGIIPPFGTAHYAQKFQGRVTITADESTSTAYMELSSLRSEDTAVYYCARGSASGYYDRSYYYYGMDVWGQGTTVTVSS VL: DIQMTQSPSSVSASVGDRVTITCRASQGISSWLAWYQQKPGKAPKLLIYAASSLQSGVPSRFSGSGSGTDFTLTISSLQPEDFATYYCQQVSSFPYTFGGGTKVEIK",2.81,11.1,14.9,87,7.2,–
"KLK5-L3-Ab7 (antibody, V domains shown) VH: QVQLVQSGAEVRKPGSSVKVSCKASGGTFSNYHISWVRQAPGQGLEWMGGIFPTFGTANYAQKFQGRVTITADESTSTAYMELSSLRSEDTAVYYCARGSASGYYDRSYYYDGMDVWGQGTTVTVSS VL: DIQMTQSPSSVSASVGDRVTITCRASQGISSWLAWYQQKPGKAPKLLIYAASSLQSGVPSRFSGSGSGTDFTLTISSLQPEDFATYYCQQVISFPYTFGGGTKVEIK",–,–,2.17,10.7,1.4,–
"KLK5-L1-Ab1 (antibody, V domains shown) VH: EVQLVESGGGLVQPGGSLRLSCAASGFTFSSYSMNWVRQAPGKGLEWVSYISSSSSTIYYADSVKGRFTISRDNAKNSLYLQMNSLRAEDTAVYYCARDLTSMQSRDYYYYGMDVWGQGTTVTVSS VL: DIQMTQSPSSVSASVGDRVTITCRASQGISSWLAWYQQKPGKAPKLLIYAASSLQSGVPSRFSGSGSGTDFTLTISSLQPEDFATYYCQQVPIFPYTFGGGTKVEIK",3.45,83.1,29.4,103,4.44,0.783
"KLK5-L1-Ab4 (antibody, V domains shown) VH: EVQLVESGGGLVQPGGSLRLSCAASGFTFNDYSMNWVRQAPGKGLEWVSYISSSSSYIDYADSVKGRFTISRDNAKNSLYLQMNSLRAEDTAVYYCARDLTSMQSRDYYYYGMDVWGQGTTVTVSS VL: DIQMTQSPSSVSASVGDRVTITCRASQGISSWLAWYQQKPGKAPKLLIYAASSLQSGVPSRFSGSGSGTDFTLTISSLQPEDFATYYCQQVPIFPYTFGGGTKVEIK",2.49,10.6,9.26,81.2,0.66,–
"KLK5-L1-Ab2 (antibody, V domains shown) VH: EVQLVESGGGLVQPGGSLRLSCAASGFTFGSYAMNWVRQAPGKGLEWVSYISSSSSFIDYADSVKGRFTISRDNAKNSLYLQMNSLRAEDTAVYYCARDLTSMQSRDYYYYGMDVWGQGTTVTVSS VL: DIQMTQSPSSVSASVGDRVTITCRASQGISSWLAWYQQKPGKAPKLLIYAASSLQSGVPSRFSGSGSGTDFTLTISSLQPEDFATYYCQQVPIFPYTFGGGTKVEIK",2.26,13.3,4.43,34.6,0.41,–
